Source: the DeepSol protein solubility set

Experiment: soluble on expression in E. coli; label from the status in PepcDB or PDB records

Soluble on expression in E. coli, soluble:
MIRVYIALGSNLAMPLQQVSAAREALAHLPRSRLVACSPLYRTKPLGPQDQPDFLNAVVALDTSLPPEQLLDHTQAIERNQGRVRKEQRWGPRTLDLDIMLYGDQVIKTDRLTIPHYGLKAREFMLYPLADIAPDLIFPDGESLSECLKRVDKNGLVLW
MISHSELRKLFYSADAVCFDVDSTVIREEGIDELAKICGVEDAVSEMTRRAMGGAVPFKAALTERLALIQPSREQVQRLIAEQPPHLTPGIRELVSRLQERNVQVFLISGGFRSIVEHVASKLNIPATNVFANRLKFYFNGEYAGFDETQPTAESGGKGKVIKLLKEKFHFKKIIMIGDGATDMEACPPADAFIGFGGNVIRQQVKDNAKWYITDFVELLGELEE

Soluble on expression in E. coli, not soluble:
MIRMSVLASGSTGNATYVESDKGSILVDAGLTGKKMEELFGQIDKQIQNLNGILVTHEHSDHIKGLGVLARKYKLPIYANEKTWTAIEKKDSKIPMDQKFIFNPYETKSLAGFDIESFNVSHDAIDPQFYIFHNNYKKFTILTDTGYVSDRMKGMIQGSDAFVFESNHDVDMLRMCGYPWKTKQRILSDMGHVSNEDAGRAMTDVITGSTKRIYLSHLSQDNLEHHHHHH
MIRRRHSTTRIDRRPDGLTIYYKRANDDMEEEMLRVSVKPEGKNINDSLRSSKSSSSPPSRNSSLNLKTLKKDRKSKEGKPKSSSKHGKRMTSRAIHVSKKWSQFNRREDKTDYLDDETMQILEDLKILNCKIRKRFQIGTTCPHSLAKTDILSSSQSSKSQKSSTTTSSPVLTAVAYDYRGIPLTAPTVFPGARSEKTRETTRKAARAFARMEKEREDANNSSSRSRKTYQSRSPTGSEDSSPVIKLTRVSSGTRFPGASSPGTRERSRLMLKQCAMKKQLDEIARSLKSSKKSRKSMKSKKEKKSKPASLKTIYSKM
MIRSTVLILASFALAVNCYECMNNTVVINAPSDISKPVFYPDGWDGQSSTPQISENQQCVMTINVPTGYYATVTFYKHFTEPGGYLYFPSRKIELLQNDDYNPYIFPSPMVKINIGTDNRNDVMNQFGFKVVYSKYPTLEKNIINIDLGSPPVAAKPSEKLTTFVGDRNSMMSLMGFTMADNSKNYLLRQTAIFGGDSTDSTYIGSLSQILNSQQILTTYGNKISVYTFGLDKLIDYPLFMGQNQVDTMGLLKYNGANCPSTGNCNVTLNGNWGAHVVVVTSYDGPETIKSFDSFPDTGVLNVYENNVSNTTCIATLNKFNYLQQLPLQVNGNMKFYELRAGGVYNMVVTRDTSRASRHQI
MISPGEAVLMDGGTTTLEVARQLAGKQLQVVTNSLPIANLLVNQPQIDLMLIGGFLFPKTGVALGKTAVESLKSVHVRRLIISVGGITEDGLYNSNMLLVETEQQMFEAAEEVIVVTDSTKFGHSALAYLCPLDRVDHIVVDDGITEEWKDVIHKAGIELTVVET
MISVFDIFKVGIGPSSSHTVGPMKAAKQFVDELSEHKLLAKTDRLVADVYGSLSLTGRGHSTDIAIVMGLMGYLPDNVDIERIDSVIQQVKQEHKLVLAEANPAETKIIDFDFYNDMPFHSTFLARHENGMTLKAFAGETLLYEKTFYSIGGGFIVDDEHFEQ
